# Source: US20220403424A1 (UNIVERSITY OF PUERTO RICO, published 2022)
# B1: FabZ-Linker-FabZ fused homodimer (enzyme)
# chain: MTTNTHTLQIEEILELLPHRFPFLLVDRVLDFEEGRFLRAVKNVSVNEPFFQGHFPGKPIFPGVLILEAMAQATGILAFKSVGKLEPGELYYFAGIDEARFKRPVVPGDQMIMEVTFEKTRRGLTRFKGVALVDGKVVCEATMMCARSREASTQNVAIQTAAPVASASNGLDAAQVQGTMTTNTHTLQIEEILELLPHRFPFLLVDRVLDFEEGRFLRAVKNVSVNEPFFQGHFPGKPIFPGVLILEAMAQATGILAFKSVGKLEPGELYYFAGIDEARFKRPVVPGDQMIMEVTFEKTRRGLTRFKGVALVDGKVVCEATMMCARSREA
# notes: Single-chain fusion; By SEC it elutes as a trimer of fused dimers, so three copies of this chain, at about 116 kDa; also called FabZ-FabZ; FabZFabZ; not shown: His tag from vector pET-200/TOPO
# B2: FabA-Linker-FabZ fused heterodimer (enzyme)
# chain: MVDKRESYTKEDLLASGRGELFGAKGPQLPAPNMLMMDRVVKMTETGGNFDKGYVEAELDINPDLWFFGCHFIGDPVMPGCLGLDAMWQLVGFYLGWLGGEGKGRALGVGEVKFTGQVLPTAKKVTYRIHFKRIVNRRLIMGLADGEVLVDGRLIYTASDLKVGLFQDTSAFSTQNVAIQTAAPVASASNGLDAAQVQGTMTTNTHTLQIEEILELLPHRFPFLLVDRVLDFEEGRFLRAVKNVSVNEPFFQGHFPGKPIFPGVLILEAMAQATGILAFKSVGKLEPGELYYFAGIDEARFKRPVVPGDQMIMEVTFEKTRRGLTRFKGVALVDGKVVCEATMMCARSREA
# notes: Single-chain fusion, His-tagged, purified from E. coli; By SEC and SAXS the chain self-associates into a higher oligomer of about 400 kDa; The number of copies is not settled: 'possibly decamers', and nonamers in computational models; also called FabA-FabZ; FabA-peptide linker-FabZ; not shown: His tag from vector pET-200/TOPO
# Target: the molecule itself
# Test: size exclusion chromatography, self-association
row,Protein,binding result
1,B1,binds
2,B2,binds
